The supplement of paper PMC10126150
± gives the standard deviation of the averaged measurements.
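Also: ATP exposure 15 min at 22 °C before imaging.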

Each sequence was assayed on ATP (assay: switch fluorescence ratio, 500 uM ATP over buffer (Cy3 cluster intensity, sum of 5 cycles each) (fold (ratio)); higher = stronger signal-on switching upon ATP binding; sequences stand for … in TCGTCGGCAGCGTCAGATGTGTATAAGAGACAGTTTTTTTTTTTTTTTTTTTTTTTTT…TC). Details: aptamer strand: ATP DNA aptamer (quencher-CACCTGGGGGAGTATTGCGGAGGAAGG + anchor), 100 nM annealed; ATP concentration: 500 uM.
In short: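 Clusters carrying Cy3-labelled switching strands on a modified Illumina MiSeq flow-cell were annealed to 100 nM quencher-labelled ATP aptamer and imaged in selection buffer. They were imaged again after 15 min with 500 uM ATP at 22 °C, over five buffer/ATP cycles with NaOH stripping and re-annealing in between. For each cluster, the fluorescence ratio is the summed Cy3 intensity of the target cycles divided by that of the buffer cycles, averaged per switch-domain sequence. Clusters outside 100-1000 RFU were left out.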
In the case of CGCTGCACGG, the switch fluorescence ratio is reported as 1.07 ± 0.038. CTTATAGGGG gave a switch fluorescence ratio of 1 ± 0.035. Sequence TTTGTACATT has a switch fluorescence ratio of 1.01 ± 0.011. AAGGCTTAAT was tested, and the switch fluorescence ratio was 1.006 ± 0.0063. For GGTCCTGTCG, the switch fluorescence ratio was 1.03 ± 0.042. For GTTTGTGAAC, the switch fluorescence ratio was 0.9821 ± 0.006. CCAGGCGATT showed a switch fluorescence ratio of 1.07 ± 0.095. TGGCTCAGTG was tested, and the switch fluorescence ratio was 1.024 ± 0.0018. For GACCGCATTT, the switch fluorescence ratio was 1.68 ± 0.46. Work on TTCTATCCTA yielded a switch fluorescence ratio of 1.02 ± 0.012. TTAGTTATAT was tested, and the switch fluorescence ratio was 1.013 ± 0.0099. ACAAGAATTA was tested, and the switch fluorescence ratio was 1.01 ± 0.055. GCGTCTTGTG gave a switch fluorescence ratio of 1.02 ± 0.11. In the case of ATATTGGGCC, the switch fluorescence ratio is reported as 0.997 ± 0.017. Work on ATAAGTTGGT yielded a switch fluorescence ratio of 0.987 ± 0.046. Sequence AAGGGTTGGT has a switch fluorescence ratio of 0.991 ± 0.028. TCAAGGGGAG showed a switch fluorescence ratio of 1.06 ± 0.067. For TACGGGTTTT, the switch fluorescence ratio was 1.01 ± 0.039. For GGTTCTCTAG, the switch fluorescence ratio was 0.976 ± 0.01. With GTTTCCGTTG the switch fluorescence ratio was 0.98414 ± 0.00058. ATATATATAT was tested, and the switch fluorescence ratio was 1.01 ± 0.012. For TCATCTATAT, the switch fluorescence ratio was 1.03 ± 0.028. GGGGTACTTG was tested, and the switch fluorescence ratio was 1.01 ± 0.02. In the case of CAATAGTGTG, the switch fluorescence ratio is reported as 0.973 ± 0.017. Work on GATGCGTCAC yielded a switch fluorescence ratio of 1.06 ± 0.056. CGTAGGTATG was tested, and the switch fluorescence ratio was 0.983 ± 0.023. TGACATGGGG gave a switch fluorescence ratio of 0.9827 ± 0.0051. Sequence ATATTAAGGC has a switch fluorescence ratio of 0.983 ± 0.017. In the case of AAGTTTATAA, the switch fluorescence ratio is reported as 1 ± 0.015. For TAACATACAT, the switch fluorescence ratio was 1.18 ± 0.11. Sequence TTGTGAAGGT has a switch fluorescence ratio of 1.05 ± 0.044. GGATGGATGA gave a switch fluorescence ratio of 1.07 ± 0.073. With CTTTTTTCGA the switch fluorescence ratio was 1.04 ± 0.039. In the case of GGGGAAAGGT, the switch fluorescence ratio is reported as 0.989 ± 0.029. With AAGGGGTCT the switch fluorescence ratio was 0.992 ± 0.024. CGCTGAGCAC was tested, and the switch fluorescence ratio was 1.18 ± 0.059. GGTTTCTCGG was tested, and the switch fluorescence ratio was 1.019 ± 0.0092. In the case of AGATTGCATA, the switch fluorescence ratio is reported as 0.994 ± 0.015. TTGTTTGTAT showed a switch fluorescence ratio of 0.9647 ± 0.0073. AAAGTTTCGT was tested, and the switch fluorescence ratio was 1.01 ± 0.018. With GTTTGATGAA the switch fluorescence ratio was 0.994 ± 0.084. ATGAGAAGAC gave a switch fluorescence ratio of 1.02 ± 0.021. TGGAAAAGAT gave a switch fluorescence ratio of 0.995 ± 0.016. ACGCTCAGGT showed a switch fluorescence ratio of 1.29 ± 0.041. TCCGTTGTGG showed a switch fluorescence ratio of 0.991 ± 0.037. AAGCGGCGGG showed a switch fluorescence ratio of 1.01 ± 0.019. CTTGGGGGAT was tested, and the switch fluorescence ratio was 0.979 ± 0.038. Work on AGATGGGGGA yielded a switch fluorescence ratio of 0.983 ± 0.026. TTTGATGCCG was tested, and the switch fluorescence ratio was 0.973 ± 0.03. Work on AAGTATGTCT yielded a switch fluorescence ratio of 1 ± 0.039. TGGATAATCG gave a switch fluorescence ratio of 0.996 ± 0.024. With ATTTGGTATT the switch fluorescence ratio was 0.992 ± 0.041. In the case of TGCGTTAAGG, the switch fluorescence ratio is reported as 1 ± 0.031. Sequence AGCTGGGGGT has a switch fluorescence ratio of 1.02 ± 0.06. With TAATCTGCTG the switch fluorescence ratio was 1.01 ± 0.02. Sequence CGGGTACGTG has a switch fluorescence ratio of 1.02 ± 0.018. Sequence ACTGAATTGG has a switch fluorescence ratio of 1.001 ± 0.0029. With GCAGGGATGC the switch fluorescence ratio was 1 ± 0.057. In the case of TATAGTTTGC, the switch fluorescence ratio is reported as 0.969 ± 0.026. Work on TTTCTATTTG yielded a switch fluorescence ratio of 1.02 ± 0.029. Work on GGGATTGTAA yielded a switch fluorescence ratio of 0.982 ± 0.021. Sequence ATAGATGGGG has a switch fluorescence ratio of 1.01 ± 0.018. CAACTACGGC showed a switch fluorescence ratio of 1.09 ± 0.05. Work on CGTCGGAAAG yielded a switch fluorescence ratio of 1.01 ± 0.024. Sequence TCCCTCTCCG has a switch fluorescence ratio of 1.27 ± 0.36. TAGATGAGGC was tested, and the switch fluorescence ratio was 1.01 ± 0.061. Work on TGTGATTCTA yielded a switch fluorescence ratio of 0.972 ± 0.017. For GAGAGGAGCT, the switch fluorescence ratio was 1.01 ± 0.039. For TTATTGGTAT, the switch fluorescence ratio was 0.998 ± 0.018. AATTTATTGT was tested, and the switch fluorescence ratio was 1.003 ± 0.0013. Work on GTGGTTCTGG yielded a switch fluorescence ratio of 1.01 ± 0.018. For AAAGAAACAT, the switch fluorescence ratio was 1.07 ± 0.08. In the case of AACCGGGGGT, the switch fluorescence ratio is reported as 0.991 ± 0.038. Sequence GGAGCTGGGG has a switch fluorescence ratio of 1.04 ± 0.065. Work on TTAGTCGATA yielded a switch fluorescence ratio of 0.9767 ± 0.0021. GTAGGCAACA was tested, and the switch fluorescence ratio was 1.01 ± 0.068. GGGCATGTCG was tested, and the switch fluorescence ratio was 1.13 ± 0.013. With CCATGTTGAG the switch fluorescence ratio was 0.997 ± 0.0086. With TTGGGGAAGT the switch fluorescence ratio was 0.994 ± 0.039. With ATGTTAGGGA the switch fluorescence ratio was 1.034 ± 0.0052. CCTGTCATGT gave a switch fluorescence ratio of 1.02 ± 0.013. With TTAAGCCCGG the switch fluorescence ratio was 1.04 ± 0.066. With GTTGAGCGTC the switch fluorescence ratio was 0.955 ± 0.032. Sequence ATTTAGACTA has a switch fluorescence ratio of 1.01 ± 0.027. For TGCCGGGGAT, the switch fluorescence ratio was 1.01 ± 0.015. With CGTCTGATTG the switch fluorescence ratio was 1.01 ± 0.025. With TTGGTGGACA the switch fluorescence ratio was 0.976 ± 0.026. In the case of TACACTGGCG, the switch fluorescence ratio is reported as 1.05 ± 0.057. In the case of TTGTCATCTG, the switch fluorescence ratio is reported as 1.01 ± 0.012. GGGTGCTGTT showed a switch fluorescence ratio of 1.02 ± 0.036. GCAGTAGGGG was tested, and the switch fluorescence ratio was 0.989 ± 0.015. TAGGATCTGG was tested, and the switch fluorescence ratio was 0.995 ± 0.027. With ATTCAATCGG the switch fluorescence ratio was 0.98 ± 0.024. Sequence CAGTGTTGGC has a switch fluorescence ratio of 1 ± 0.016. Work on TCTTGGTA yielded a switch fluorescence ratio of 0.959 ± 0.031. With TAAGTAATTT the switch fluorescence ratio was 1.01 ± 0.042. With AATCGGGTGT the switch fluorescence ratio was 1.11 ± 0.047. For GGCGGAAGTA, the switch fluorescence ratio was 1 ± 0.019. GCTCTACGGT showed a switch fluorescence ratio of 1.013 ± 0.0099. CTTGGATTCC was tested, and the switch fluorescence ratio was 1 ± 0.021.
